The numbers were not newly measured in patent US20040014652A1, “Tumor activated prodrug compounds and methods of making and using the same” (priority 2000, published 2004), which cites them from elsewhere.

Usually half-life stands for the time needed for the level to fall by half in the phase considered.

The conditions of data set [1]: human, in vivo.
For data set [2], the system named is tumors. Conditions: mice.

Consider TNFα, for which, in data set [1], the half-life was 20 min. In data set [2], the “dose required for tumor regression” value is “approximately 400 μg/kg”.
